First the molecules themselves.
B1: PBM_PU1_IRF8_v2_2 (dsDNA)
DNA 1: GCCTAGCACGAAAAGGGGAAGTGTATTCCGTGCTAGGTCTTGATTCGCTTGACGCTGCTG
DNA 2: CAGCAGCGTCAAGCGAATCAAGACCTAGCACGGAATACACTTCCCCTTTTCGTGCTAGGC
B2: PBM_PU1_IRF8_v2_30 (dsDNA)
DNA 1: GCCTAGCACATTTTAAGGAAGTGAAACCCGTGCTAGGTCTTGATTCGCTTGACGCTGCTG
DNA 2: CAGCAGCGTCAAGCGAATCAAGACCTAGCACGGGTTTCACTTCCTTAAAATGTGCTAGGC
B3: PBM_PU1_IRF8_v2_1 (dsDNA)
DNA 1: GCCTAGCACTAAAAGAGGAAGTGGCAGATGTGCTAGGTCTTGATTCGCTTGACGCTGCTG
DNA 2: CAGCAGCGTCAAGCGAATCAAGACCTAGCACATCTGCCACTTCCTCTTTTAGTGCTAGGC
B4: PBM_PU1_IRF8_v2_22 (dsDNA)
DNA 1: GCCTAGCACGAAAAGAGGAAGTGGAAACAGTGCTAGGTCTTGATTCGCTTGACGCTGCTG
DNA 2: CAGCAGCGTCAAGCGAATCAAGACCTAGCACTGTTTCCACTTCCTCTTTTCGTGCTAGGC
B5: PBM_PU1_IRF8_v2_24 (dsDNA)
DNA 1: GCCTAGCACATAAGGAGGAAGTGAGACAGGTGCTAGGTCTTGATTCGCTTGACGCTGCTG
DNA 2: CAGCAGCGTCAAGCGAATCAAGACCTAGCACCTGTCTCACTTCCTCCTTATGTGCTAGGC
B6: PBM_PU1_IRF8_v2_6 (dsDNA)
DNA 1: GCCTAGCACGAAGAGAGGAAGTGAAATTAGTGCTAGGTCTTGATTCGCTTGACGCTGCTG
DNA 2: CAGCAGCGTCAAGCGAATCAAGACCTAGCACTAATTTCACTTCCTCTCTTCGTGCTAGGC
B7: PBM_PU1_IRF8_v2_5 (dsDNA)
DNA 1: GCCTAGCACAAATAGAGGAAGTCAGAGAGGTGCTAGGTCTTGATTCGCTTGACGCTGCTG
DNA 2: CAGCAGCGTCAAGCGAATCAAGACCTAGCACCTCTCTGACTTCCTCTATTTGTGCTAGGC
B8: PBM_PU1_IRF8_v2_23 (dsDNA)
DNA 1: GCCTAGCACCAAATGAGGAAGTGAGACTTGTGCTAGGTCTTGATTCGCTTGACGCTGCTG
DNA 2: CAGCAGCGTCAAGCGAATCAAGACCTAGCACAAGTCTCACTTCCTCATTTGGTGCTAGGC
B9: PBM_PU1_IRF8_v2_3 (dsDNA)
DNA 1: GCCTAGCACATAAGGAGGAAGTGGCTGAAGTGCTAGGTCTTGATTCGCTTGACGCTGCTG
DNA 2: CAGCAGCGTCAAGCGAATCAAGACCTAGCACTTCAGCCACTTCCTCCTTATGTGCTAGGC
B10: PBM_PU1_IRF8_v2_13 (dsDNA)
DNA 1: GCCTAGCACGAAAAGAGGAAGTCAGATTGGTGCTAGGTCTTGATTCGCTTGACGCTGCTG
DNA 2: CAGCAGCGTCAAGCGAATCAAGACCTAGCACCAATCTGACTTCCTCTTTTCGTGCTAGGC
B11: PBM_PU1_IRF8_v2_4 (dsDNA)
DNA 1: GCCTAGCACGAAAACAGGAAGTGGACAACGTGCTAGGTCTTGATTCGCTTGACGCTGCTG
DNA 2: CAGCAGCGTCAAGCGAATCAAGACCTAGCACGTTGTCCACTTCCTGTTTTCGTGCTAGGC
B12: PBM_PU1_IRF8_v2_16 (dsDNA)
DNA 1: GCCTAGCACAATATAGGGAAGTGCTTAACGTGCTAGGTCTTGATTCGCTTGACGCTGCTG
DNA 2: CAGCAGCGTCAAGCGAATCAAGACCTAGCACGTTAAGCACTTCCCTATATTGTGCTAGGC

The data set deals with PU.1 (IVT) (UniProt P17947 1-270). Put plainly: PBM; 20 mM HEPES pH 7.9, 100 mM NaCl, 1 mM DTT, 0.2 mg/mL BSA, 0.02% Triton X-100, 2% milk, 0.4 mg/mL salmon testes DNA, 1 h; temperature not stated. The following applies: protein: ivt; blunt. The method, boiled down:
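Untagged full-length PU.1 was produced by coupled human in vitro transcription/translation and incubated for 1 h on custom double-stranded DNA microarrays in HEPES pH 7.9 containing 100 mM NaCl, 2% milk and salmon testes DNA. Each array carried 20-bp genomic sites and single-nucleotide variants, with 10 probes per site (5 per orientation). Bound protein was detected with anti-PU.1 followed by a fluorescent secondary antibody. Binding values are z-scores calculated from scanned fluorescence after linear-regression normalisation.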
B1 had a binding signal of 7.7 z-score.

The molecule B2 gave a binding signal of 5.72 z-score.

On to B3, for which the binding signal was determined as 8.16 z-score.

In turn, B4 returned a binding signal of 8.54 z-score.

For the molecule B5, the binding signal is 4.54 z-score.

On to B6, for which the binding signal stood at 5.03 z-score.

With B7, the binding signal amounted to 6.21 z-score.

Molecule B8 yielded a binding signal of 7.69 z-score.

Molecule B9 gave a binding signal of 5.13 z-score.

For B10, the binding signal turned out to be 8.24 z-score.

As for B11, the binding signal turned out to be 7.4 z-score.

As to B12, the binding signal was found to be 5.82 z-score.

The record behind these values is paper PMC6451091, “NextPBM: a platform to study cell-specific transcription factor binding and cooperativity”.
